In general, Kd refers to a measure of binding affinity in units of concentration. For orientation: koff means a measure of how fast the partners let go of each other. The term kon denotes the second-order rate constant of association.

Kd, koff and kon data for 18 molecules are collected here from patent US20220275067A1 (PROTHENA BIOSCIENCES, published 2022).

First the molecules themselves.
B1: hu9F5VHv9/hu9F5VLv8_DIM18 (antibody, V domains shown)
VH: EVQLVQSGAEVKKPGATVKISCKASGFNIKDDYMNWVQQRPGKGLEWIGWIDPENGDTEYASKFQGRATMTADTSTNTAYMELSSLRSEDTAVYYCTTSNGWGQGTLVTVSS
VL: DIQMTQSPFSLPVTPGESASISCRSSKSLDHSNGITYLYWYGQKPGQSPQLLIYQGSNRASGVPNRFSSSGSGTDFTLKISRVEAEDVGVYYCAQNIELPLTFGQGTKLEIK
B2: hu9F5VHv9/hu9F5VLv8_DIM24 (antibody, V domains shown)
VH: EVQLVQSGAEVKKPGATVKISCKASGFNIKDDYMNWVQQRPGKGLEWIGWIDPENGDTEYASKFQGRATMTADTSTNTAYMELSSLRSEDTAVYYCTTSNGWGQGTLVTVSS
VL: DIQMTQSPFSLPVTPGESASISCRSSKSLGHSNGITYLYWYIQKPGQSPQLLIYQESNRASGVPNRFSSSGSGTDFTLKISRVEAEDVGVYYCAQNIELPLTFGQGTKLEIK
B3: hu9F5VHv9/hu9F5VLv8_DIM20 (antibody, V domains shown)
VH: EVQLVQSGAEVKKPGATVKISCKASGFNIKDDYMNWVQQRPGKGLEWIGWIDPENGDTEYASKFQGRATMTADTSTNTAYMELSSLRSEDTAVYYCTTSNGWGQGTLVTVSS
VL: DIQMTQSPFSLPVTPGESASISCRSSKSLSHSNGITYLYWYQQKPGQSPQLLIYQISNGASGVPNRFSSSGSGTDFTLKISRVEAEDVGVYYCAQNIELPLTFGQGTKLEIK
B4: hu9F5VHv9/hu9F5VLv8_DIM21 (antibody, V domains shown)
VH: EVQLVQSGAEVKKPGATVKISCKASGFNIKDDYMNWVQQRPGKGLEWIGWIDPENGDTEYASKFQGRATMTADTSTNTAYMELSSLRSEDTAVYYCTTSNGWGQGTLVTVSS
VL: DIQMTQSPFSLPVTPGESASISCRSSKSLSHSNGITYLYWYQQKPGQSPQLLIYQISNGASGVPNRFSSSGSGTDFTLKISRVEAEDVGVYYCAQNLELPLTFGQGTKLEIK
B5: hu9F5VHv9/hu9F5VLv8_DIM25 (antibody, V domains shown)
VH: EVQLVQSGAEVKKPGATVKISCKASGFNIKDDYMNWVQQRPGKGLEWIGWIDPENGDTEYASKFQGRATMTADTSTNTAYMELSSLRSEDTAVYYCTTSNGWGQGTLVTVSS
VL: DIQMTQSPFSLPVTPGESASISCRSSKSLGHSNGITYLYWYIQKPGQSPQLLIYQESNRASGVPNRFSSSGSGTDFTLKISRVEAEDVGVYYCAQNGELPLTFGQGTKLEIK
B6: hu9F5VHv9/hu9F5VLv8_DIM19 (antibody, V domains shown)
VH: EVQLVQSGAEVKKPGATVKISCKASGFNIKDDYMNWVQQRPGKGLEWIGWIDPENGDTEYASKFQGRATMTADTSTNTAYMELSSLRSEDTAVYYCTTSNGWGQGTLVTVSS
VL: DIQMTQSPFSLPVTPGESASISCRSSKSLSHSNGITYLYWYIQKPGQSPQLLIYQISNRASGVPNRFSSSGSGTDFTLKISRVEAEDVGVYYCAQNIELPLTFGQGTKLEIK
B7: hu9F5VHv9/hu9F5VLv8_DIM27 (antibody, V domains shown)
VH: EVQLVQSGAEVKKPGATVKISCKASGFNIKDDYMNWVQQRPGKGLEWIGWIDPENGDTEYASKFQGRATMTADTSTNTAYMELSSLRSEDTAVYYCTTSNGWGQGTLVTVSS
VL: DIQMTQSPFSLPVTPGESASISCRSSKSLLHSNGITYLYWYQQKPGQSPQLLIYQGSNRASGVPNRFSSSGSGTDFTLKISRVEAEDVGVYYCAQNIELPLTFGQGTKLEIK
B8: hu9F5VHv9/hu9F5VLv8_DIM30 (antibody, V domains shown)
VH: EVQLVQSGAEVKKPGATVKISCKASGFNIKDDYMNWVQQRPGKGLEWIGWIDPENGDTEYASKFQGRATMTADTSTNTAYMELSSLRSEDTAVYYCTTSNGWGQGTLVTVSS
VL: DIQMTQSPFSLPVTPGESASISCRSSKSLSHSNGITYLYWYQQKPGQSPQLLIYQGSNLASGVPNRFSSSGSGTDFTLKISRVEAEDVGVYYCAQNIELPLTFGQGTKLEIK
B9: hu9F5VHv10/hu9F5VLv9_DIM1 (antibody, V domains shown)
VH: EVQLVQSGAEVKKPGATVKISCKASGFNIKDDYMNWVKQRPEKGLEWIGWIDPENGDTEYASKFQGRATMTADTSTNTAYMELSSLRSEDTAVYYCTTSNGWGQGTLVTVSS
VL: DIQMTQSPFSLPVTPGESASISCRSSKSLSHSNGITYLYWYQQKPGQSPQLLIYQGSNGASGVPDRFSSSGSGTDFTLKISRVEAEDVGVYYCAQNIELPLTFGQGTKLEIK
B10: hu9F5VHv10/hu9F5VLv9_DIM2 (antibody, V domains shown)
VH: EVQLVQSGAEVKKPGATVKISCKASGFNIKDDYMNWVKQRPEKGLEWIGWIDPENGDTEYASKFQGRATMTADTSTNTAYMELSSLRSEDTAVYYCTTSNGWGQGTLVTVSS
VL: DIQMTQSPFSLPVTPGESASISCRSSKSLSHSNGITYLYWYQQKPGQSPQLLIYQGSNRASGVPDRFSSSGSGTDFTLKISRVEAEDVGVYYCAQNIELPLTFGQGTKLEIK
B11: hu9F5VHv10/hu9F5VLv9_DIM5 (antibody, V domains shown)
VH: EVQLVQSGAEVKKPGATVKISCKASGFNIKDDYMNWVKQRPEKGLEWIGWIDPENGDTEYASKFQGRATMTADTSTNTAYMELSSLRSEDTAVYYCTTSNGWGQGTLVTVSS
VL: DIQMTQSPFSLPVTPGESASISCRSSKSLGHSNGITYLYWYQQKPGQSPQLLIYQGSNRASGVPDRFSSSGSGTDFTLKISRVEAEDVGVYYCAQNIELPLTFGQGTKLEIK
B12: hu9F5VHv9/hu9F5VLv8_DIM22 (antibody, V domains shown)
VH: EVQLVQSGAEVKKPGATVKISCKASGFNIKDDYMNWVQQRPGKGLEWIGWIDPENGDTEYASKFQGRATMTADTSTNTAYMELSSLRSEDTAVYYCTTSNGWGQGTLVTVSS
VL: DIQMTQSPFSLPVTPGESASISCRSSKSLSHSNGITYLYWYQQKPGQSPQLLIYQESNRASGVPNRFSSSGSGTDFTLKISRVEAEDVGVYYCAQNIELPLTFGQGTKLEIK
B13: hu9F5VHv9/hu9F5VLv8_DIM28 (antibody, V domains shown)
VH: EVQLVQSGAEVKKPGATVKISCKASGFNIKDDYMNWVQQRPGKGLEWIGWIDPENGDTEYASKFQGRATMTADTSTNTAYMELSSLRSEDTAVYYCTTSNGWGQGTLVTVSS
VL: DIQMTQSPFSLPVTPGESASISCRSSKSLSHSNGITYLYWYLQKPGQSPQLLIYQGSNRASGVPNRFSSSGSGTDFTLKISRVEAEDVGVYYCAQNIELPLTFGQGTKLEIK
B14: hu9F5VHv9/hu9F5VLv8_DIM23 (antibody, V domains shown)
VH: EVQLVQSGAEVKKPGATVKISCKASGFNIKDDYMNWVQQRPGKGLEWIGWIDPENGDTEYASKFQGRATMTADTSTNTAYMELSSLRSEDTAVYYCTTSNGWGQGTLVTVSS
VL: DIQMTQSPFSLPVTPGESASISCRSSKSLGHSNGITYLYWYQQKPGQSPQLLIYQESNGASGVPNRFSSSGSGTDFTLKISRVEAEDVGVYYCAQNIELPLTFGQGTKLEIK
B15: hu9F5VHv10/hu9F5VLv9_DIM8 (antibody, V domains shown)
VH: EVQLVQSGAEVKKPGATVKISCKASGFNIKDDYMNWVKQRPEKGLEWIGWIDPENGDTEYASKFQGRATMTADTSTNTAYMELSSLRSEDTAVYYCTTSNGWGQGTLVTVSS
VL: DIQMTQSPFSLPVTPGESASISCRSSKSLGHSNGITYLYWYQQKPGQSPQLLIYQKSNRASGVPDRFSSSGSGTDFTLKISRVEAEDVGVYYCAQNIELPLTFGQGTKLEIK
B16: hu9F5VHv9/hu9F5VLv8_DIM26 (antibody, V domains shown)
VH: EVQLVQSGAEVKKPGATVKISCKASGFNIKDDYMNWVQQRPGKGLEWIGWIDPENGDTEYASKFQGRATMTADTSTNTAYMELSSLRSEDTAVYYCTTSNGWGQGTLVTVSS
VL: DIQMTQSPFSLPVTPGESASISCRSSKSLIHSNGITYLYWYIQKPGQSPQLLIYQESNRASGVPNRFSSSGSGTDFTLKISRVEAEDVGVYYCAQNLELPLTFGQGTKLEIK
B17: hu9F5VHv10/hu9F5VLv9_DIM4 (antibody, V domains shown)
VH: EVQLVQSGAEVKKPGATVKISCKASGFNIKDDYMNWVKQRPEKGLEWIGWIDPENGDTEYASKFQGRATMTADTSTNTAYMELSSLRSEDTAVYYCTTSNGWGQGTLVTVSS
VL: DIQMTQSPFSLPVTPGESASISCRSSKSLSHSNGITYLYWYQQKPGQSPQLLIYQGSNRASGVPDRFSSSGSGTDFTLKISRVEAEDVGVYYCAQNGELPLTFGQGTKLEIK
B18: hu9F5VHv9/hu9F5VLv8_DIM29 (antibody, V domains shown)
VH: EVQLVQSGAEVKKPGATVKISCKASGFNIKDDYMNWVQQRPGKGLEWIGWIDPENGDTEYASKFQGRATMTADTSTNTAYMELSSLRSEDTAVYYCTTSNGWGQGTLVTVSS
VL: DIQMTQSPFSLPVTPGESASISCRSSKSLSHSNGITYLYWYQQKPGQSPQLLIYQMSNRASGVPNRFSSSGSGTDFTLKISRVEAEDVGVYYCAQNIELPLTFGQGTKLEIK

T1 sequence (P10636 other isoform, or with tags, fused parts or gaps limits assumed): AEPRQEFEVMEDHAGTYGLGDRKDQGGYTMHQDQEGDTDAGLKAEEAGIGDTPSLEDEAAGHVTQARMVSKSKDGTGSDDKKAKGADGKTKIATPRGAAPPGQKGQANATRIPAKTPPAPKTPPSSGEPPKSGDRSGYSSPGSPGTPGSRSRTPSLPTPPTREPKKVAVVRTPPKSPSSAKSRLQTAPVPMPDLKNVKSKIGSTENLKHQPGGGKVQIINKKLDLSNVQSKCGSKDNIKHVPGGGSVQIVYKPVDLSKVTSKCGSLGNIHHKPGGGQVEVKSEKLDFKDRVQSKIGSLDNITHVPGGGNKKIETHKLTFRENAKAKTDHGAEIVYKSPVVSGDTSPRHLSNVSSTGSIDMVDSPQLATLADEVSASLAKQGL

The assay addresses T1, recombinant human 4R0N tau (human, UniProt P10636 2-758).
T1 construct: also called recombinant 4R0N human tau; P10636-6
The assay is described as follows: SPR Biacore T200; antibody captured by anti-human Fc; tau as analyte; global 1:1 fit. As for the experimental part: Target binding analysis was performed using a Biacore T200 to compare the binding affinity of humanized 9F5 variants to recombinant human 4R0N tau. Anti-Human Fc antibody was immobilized on sensor chip CM3 via amine coupling, and humanized 9F5 variants were captured to equivalent levels. Various concentrations of recombinant 4R0N human tau (ranging from 0.02 nM to 12.5 nM) were passed over the captured ligand at 50 μL/min in running buffer (HBS+0.05% P-20, 1 mg/mL BSA) for 180 seconds association/420 seconds dissociation as a single cycle. Data was blank subtracted to both an irrelevant sensor not containing antibody and 0 nM analyte concentration. Analysis was performed using a global 1:1 fit with Biacore Evaluation software.
Take B1: the dissociation constant Kd came out at 0.0447 nM, the off-rate (koff) came to 9.39e-05 s⁻¹ and the kon is 2.1e+06 M⁻¹ s⁻¹.

B2: the dissociation constant (Kd) stood at 0.454 nM, the dissociation rate constant (koff) is 0.000993 s⁻¹ and the association rate constant (kon) was 2.19e+06 M⁻¹ s⁻¹.

For B3, the dissociation constant (Kd) worked out at 12.3 nM, the koff worked out at 0.0694 s⁻¹ and the kon is 5.64e+06 M⁻¹ s⁻¹.

Take B4: the Kd came to 858 nM, the koff was determined as 1.12 s⁻¹ and the association rate constant (kon) is 1.31e+06 M⁻¹ s⁻¹.

B5: the equilibrium dissociation constant (Kd) is 3.15 nM, the off-rate constant (koff) turned out to be 0.0409 s⁻¹ and the kon amounted to 1.3e+07 M⁻¹ s⁻¹.

Regarding B6, the Kd came out at 0.597 nM, the off-rate (koff) was 0.00215 s⁻¹ and the association rate constant (kon) was determined as 3.61e+06 M⁻¹ s⁻¹.

For B7, the equilibrium dissociation constant (Kd) was determined as 0.16 nM, the koff came to 0.000385 s⁻¹ and the kon worked out at 2.41e+06 M⁻¹ s⁻¹.

Take B8: the Kd was 0.438 nM, the koff was found to be 0.000447 s⁻¹ and the on-rate (kon) was 1.02e+06 M⁻¹ s⁻¹.

As to B9, the Kd worked out at 1.47 nM, the koff is 0.00395 s⁻¹ and the association rate constant (kon) is 2.69e+06 M⁻¹ s⁻¹.

Consider B10, for which the Kd amounted to 0.679 nM, the dissociation rate constant (koff) is 0.00184 s⁻¹ and the kon is 2.72e+06 M⁻¹ s⁻¹.

B11: the equilibrium dissociation constant (Kd) is 0.542 nM, the koff worked out at 0.000919 s⁻¹ and the on-rate (kon) amounted to 1.7e+06 M⁻¹ s⁻¹.

Consider B12, for which the Kd turned out to be 0.39 nM, the koff amounted to 0.000878 s⁻¹ and the association rate constant (kon) was determined as 2.25e+06 M⁻¹ s⁻¹.

B13: the Kd was found to be 0.0692 nM, the koff is 0.000217 s⁻¹ and the on-rate constant (kon) amounted to 3.13e+06 M⁻¹ s⁻¹.

On to B14, for which the Kd was found to be 1.24 nM, the off-rate constant (koff) stood at 0.0832 s⁻¹ and the kon was found to be 6.69e+07 M⁻¹ s⁻¹.

B15: the Kd was determined as 0.859 nM, the off-rate constant (koff) was 0.00232 s⁻¹ and the kon stood at 2.71e+06 M⁻¹ s⁻¹.

With B16, the Kd was 1.04 nM, the koff worked out at 0.004 s⁻¹ and the association rate constant (kon) is 3.84e+06 M⁻¹ s⁻¹.

On to B17, for which the dissociation constant (Kd) was 1.74 nM, the dissociation rate constant (koff) is 0.00439 s⁻¹ and the kon is 2.53e+06 M⁻¹ s⁻¹.

B18: the Kd is 0.27 nM, the koff amounted to 0.000534 s⁻¹ and the kon is 1.98e+06 M⁻¹ s⁻¹.
